This note sets out measurements from article PMC5797019, “Peptide inhibition of the SETD6 methyltransferase catalytic activity” (Oncotarget, 2017).

The experiment deals with GST-SETD6 (UniProt Q8TBK2).
Sequence of GST-SETD6 (Q8TBK2 whole entry): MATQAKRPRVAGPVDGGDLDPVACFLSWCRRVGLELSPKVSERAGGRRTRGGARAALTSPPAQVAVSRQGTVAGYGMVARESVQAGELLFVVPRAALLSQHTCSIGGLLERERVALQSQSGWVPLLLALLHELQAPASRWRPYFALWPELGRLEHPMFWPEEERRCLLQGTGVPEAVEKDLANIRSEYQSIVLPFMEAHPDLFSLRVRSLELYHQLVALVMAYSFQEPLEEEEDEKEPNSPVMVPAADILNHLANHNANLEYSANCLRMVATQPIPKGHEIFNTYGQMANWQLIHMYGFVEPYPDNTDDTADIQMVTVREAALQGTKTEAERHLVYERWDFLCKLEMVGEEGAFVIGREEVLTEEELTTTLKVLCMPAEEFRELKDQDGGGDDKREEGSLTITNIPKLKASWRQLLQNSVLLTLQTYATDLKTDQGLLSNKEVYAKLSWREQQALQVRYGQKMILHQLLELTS

Regarding “vp22-RelA302-316 peptide (from UniProt Q04206 302-316)”, the auto-methylation signal of recombinant GST-SETD6 (in vitro methylation assay with 3H-labeled S-adenosyl methionine) with increasing amounts of vp22-RelA; significant reduction at 0.5 μM came to 2 µM.
